Measurements reported in the nanobody polyreactivity screen of Harvey et al. (2022).

Assay: yeast display, Sf9 membrane polyspecificity reagent, FACS + sequencing; frameworks hold sequencing errors
Procedure, shortened: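 After 36–48 hours of galactose induction, yeast (Saccharomyces cerevisiae BJ5465) displaying a synthetic nanobody library were stained at 4 °C for 1 hour with 10% biotinylated, detergent-solubilized Sf9 membrane reagent. Streptavidin microbeads enriched the stained cells before FACS sorting into low and high (top ~1%) gates on anti-HA and streptavidin fluorescence. Each clone's polyreactivity label reflects its gate of origin.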

Sequence | polyreactivity (PSR sort gate)
QVQLVESGGGLVQAGGSLRLSCAASGFTFYSNAMGWYRQAPGKERELVAAISYSGGSTYYADSVKGRFTISRDNAKNTVYLQMNSLKPEDTAVYYCAAGGLQQGDYWGQGTQVTVSS | low polyreactivity
QVQLVESGGGLVQVGGSLRLSCAASGLTFYANAMGWYRQAPGKEREVVAAIRKRGGSTYYADSVKGRFTISRDNAKNTVYFQMNSLKPEDTAVYYGATYGGPFSVGTGFHDVRYDYWGHGTQVTVSS | low polyreactivity
QVQLVESGGGLVQAGGSLRLSCAASGFTLLPYAMGWYRQAPGKERELVAAISRRGVSTYYADSVKGRFTISRDNAKNTVYLQMNSLKPEDTAVYYCATRYFTGYGLRPQFYYWGQGSQVTVSS | high polyreactivity
QVQLVESGGGLVQAGGSLRLSCAASGIIFSRYVMGWSRQAPGKERELVAAISGSGGSTYYADSVKGRFTISRDNAKNTVYLQMNSLKPEDTAVYYCAKRRSWSNRIYGYWGQGTQVTVSS | high polyreactivity
QVQLVESGGGLVQAGGSLRLSCAASGSILRTYTMGWYRQAPGKERELVAAISSSGGRTYYADSVKGRFTISRDNAKNTVYLQMNSLKPEDTAVYYCNAAYTTWRRGPMNYWGQGTQVTVSS | high polyreactivity
QVQLVESGGGLFQAGGSLRLSCAASGFTSLWYGIGWYRPAPGKERELVAAITSDSSTYYADSVKGRFTISRDNAKNTVYLQMYSLKPQDTAVYSCAKYFVYVGYGRYAFWGQGTQVTVSS | low polyreactivity
QVQLVESGGGLVQAGGSLRLSCAASGITFGYNAMGWYRQAPGKDRELVAAITRSAGSTGYADSVKGRFTISRDNAKNTVYLQMNSLKPEDTAVYYCAAVRLSGSHRYGYWGQGTQVTVSS | high polyreactivity
QVQLVESGGGLVQAGGSLRLSCAASGFTLAYNTMGWYRQAPGKERELVASITSSGTSTYYADSVKGRFTISRDNAKNTVYLQMNSLKPPDTAVYYCAASIWLRYHWGYDYWGQGTQVTVSS | high polyreactivity
QVQLVESGGGLVQAGGSLRLSCAASGSIFQYNAMGWYRQAPGKERELVAAISSRGGITYYADSVKGRFTISRDNAQNTVYLQMNSLKPEDTAVYYCAAEAYYSEVRWYEYWGQGTQVTVSS | high polyreactivity
QVQLVESGAGIVQAGGSLRLSCAASGRTFNWYAMGLYTQPPGKERELVAAITYPGGTTYYADSVKGRFTISRDNAKNTVYLQMNSLKPEDTAVYYCAATFRYRRVTPTTRFNYWGQGTQVTVSS | high polyreactivity
QVQLVESGGGLVQAGGSLRLSCAASGSTFWYYDMGWYRQAPGQERALVAASTSGGRTNYADSVKGRVTISRDKAKNTVYLQMNSLKPEDTAVYYCARTSYRFYRKRYYWGQGTQVTVSS | high polyreactivity
QVQLVESGGGLVQAGGSLRLSCAASGYTLGDYSMGWYRQAPGKERELVAVITRNGGRTYYSDSVKGRFTISRDKAKNTVYLQMNSLKPEDTAVYYCNRDTSIRHYNYWGQGTQVTVSS | high polyreactivity
QVQLVESGGGLVQAGGSLRLSCAASGFIFRLYDMVRYRQAPGKERELVAAISSGGRTNYADSVKGRFTISSDNPKNTVYLQMNSLKPEDTAVYYCAARSIFGYRSYGYWGQGTQVTVSS | high polyreactivity
QVQHVESGGGIVQAGGSLRLSCSASGSTFFYNTMGWYRHAPGKERELVAAISYRTGSTYYADSVKGRFTISRDNAKNSVYLQMNSLKTEDTAVYYCNARYPYRYGYWGQGTQVTVSS | high polyreactivity
QVQLVESGGGLVQAGGILRLSCAASGFIIRGNVMGWYRQAPGKERELVAAISGRGGSTYYADSVKGRFTISRDNAKNTVYLQMNSLKPEDTAVYYCNAAGLYNSRLDYWGQGTQVTVSS | high polyreactivity
QVQLVESGGGLVQAGGSLRLSCAASGFTFYTNTMGWYRQAPGKERELVAAISSGGSTYYADSVKGRFTISLDNAKNTVYLKMNSLKPEVTAVYYCAVYGPWAYYPMGYWGQGTQVTVSS | low polyreactivity
QVQLVESGGGLVQAGGSLRLSCAASGLTFSVYTMGWYRQAPGKERELVAAITTSGGRTYYADSVKGRFTISRDNAKNTVYLQMNSLKPVDPAVYYCAAVRTGDTTGTMGYWGQGTQVTVSS | high polyreactivity
QVQLVESGGGLVQAGGSLRLSCAASGSIFSWNAMGWYRQAPGKERELVAAITGGGSTYYADSVKGRFTISRDNAKNTFYLQMNSLKPEDTAVYYCNALWYWDKLEYWGQGTQVTVSS | high polyreactivity
QVQLVESGGGLVQAGGSLRLSCAASGSIIKAYAMGWYREAAGKERELVATITRSGVSTYYADSVNGRFTISRDNAKNTVYLQMKSLKPEDTAVYYCNRTGYVRFYITQQRGYFRYDYWGQGTQVTVSS | low polyreactivity
QVQLVESGGGLVQAGGSLRLSCAASGSILGTYAMGWYRQAPGKERELVAAISWNGGSTYYADSVKGRFTISRDNAKNTVYLQMNSLKPEYTAVYYCAARQWSQGWYDYWGQGTQVTLSS | high polyreactivity
QVQLVESGGGLVQAGGSLRLSCAASGSIFSPYAMGWYRQAPGKERELVAAISDRGGSTYYADSVKVRFTISRDNAKNTVYLQMNSLKPEDTAVYYCAARVGYAFRYYYWGQGTQVTVSS | high polyreactivity
QVQLVESGGGLVQAGGSLRLSCAASGSTFGWYAMGWYRQAPGKERELVAAISNSGGSTYYADSVKGRFTISRDNAKNTVYLQMNSLKPEDTAVYYCATYHTTSYYQLVFDYWGQGTQVTVSS | low polyreactivity

Sequence | polyreactivity (PSR sort gate)
QVQLVESGGGLVQAGGSLRLSCAASGSTFVSNAMGWYRQAPGKERELVAAISTSGGSTYYADSVKGRFTISRDNAKNTVYLQMNSLKPEDTAVYYCAKLLARGFRIWQDYDYWGQGTEVTVSS | low polyreactivity
QVQLVESGGGLVQAGGSLRLSCAASGRTFYSNAMGWYRQAPGKERELVAAITFGGGSTYYADSVKGRFTISRDNAKNTVYLQMNSLKPEDTAVYYCAAEGYKYRFYYWGQGTQVTVSS | low polyreactivity
QVQLVESGGCLVQAGGSLRLSCAASGRIFGYYAMGWYRQEPWKERELVAAISYSGGTTYYADSVKGRFTISRDNAKNTVYLQMNSLKPEDTAVYYCAAESYTYYADYGYGYWGQGTQVSVSS | high polyreactivity
QVQLVQSGGGLVQAGGSLRLSCAASGLTLRGNTMGWYRQAPGKEREMVADITASAGSTYYADSVKGRFTISRDNAKNTVYLQMNSLKPEDTAVYYCATVRYDVAAWAYSEYYYWGQGSQVTVSS | low polyreactivity
QVQLVESGGGLVQAGGSLRLTCAASGRTFPGNAMGWYRQAPGKERELVAAISWSVDRTYYADSVKGRFTISRDNAKNTVYLQMNSLKPEDTAVYYCAAVHWWSSSLRMYYWGQGTQVTVSS | low polyreactivity
QVQHVESGGGLVQAGGSLRLSCAASGLTIWYYAIGWYRQAPGKEREFVAAITSRGGDTYYADSVKGRFTISRDNAKNTVYLQLNSLKPEDTGVYYCAVRPRYYGTYRYYYWGQGTQVTVSS | high polyreactivity
QVQLVESGGGLVQAGGSLRLSCAASGSIFLYYAMGWYIQAPGKERELVAGIRRGGRTNYADSVKGRFTISRDNAKNTVYLQMNSLKPEDTAVYYCAKGGYWGHGTQVTVSS | high polyreactivity
QVQLVESGGGLVQAGGSLRLSCAASGGTFSFNAMGWYRQAPGKERELVAAITQTGDGTYYADSVKGRFTISRDNAKNTVYLQMNSLKPEDTAVYYCNTDSIPYVPWFRFDYWGQGTQVTVSS | low polyreactivity
QVQLVESGGGLVQAGGSLRLSCAASGSTFFVYDMGWYRQAPGKERELVAAISSDTSTNYADSVKGRFTISRDNAKNTVYLQMNSLKPEDTAVYYCNADSYWEYDYWGQGTQVTVSS | low polyreactivity
QVQLVESGGGLVQAGGSLRLSCAASGFIFHIYAMGWYRQAPGKERELVAVITSGGSTYYADSVKGRFTISRDNAKNTVYLQMNSLKPEDTAVYYCAARYRRSWLEYDYWGQGTQVTVSS | high polyreactivity
QVQLVESGGGLVQAGGSLRLSCAASGRIFARNAMGWYRQAPGKERELVATIRVGGGSTYYADSVKGRFTISRDNAKNTVYLQMNSLKPEDTAVYYCAVRQLYSYPGDRRGYYWGQGTQVTVSS | low polyreactivity
QVQLVESGGGLVQAGGSLSLSCAASGFTFGSNDMGWYRQAPGKERELVAAIDGSGDTYYADSVKGRFTISRDNAKNTVYLQMNSLKPEDTAVYYCARDDNPIYSGVTYDYWGQGTQVTVSS | low polyreactivity
QVQLVESGGGLVQAGGSLRLSCAASGFTFKGNAMGWYRQAPGKERELVATITQSAGSTYYADSVKGRFTISRDNAKNTVYLQMNSLKPEDTAVYYCAAYLSETRPYLYDYWGQGTQVTVSS | low polyreactivity
QVQLVESGGGLVQAGGSLRLSCASSGGTFISYAMGWYRQAPGKERELVAAISRGGSSTYYADSVKGRFTISRDNAKNTVYLQMNSLKPEDTAVYYCNKAYHRRDSEFGYWGQGTQVTVSS | high polyreactivity
QVQLVESGGGLVQAGGSLRLSCAASGIIFDLNAMGWYRQAPGKERELVAAISSGGGTYYADSVKGRFTISRDNAKNTVYLQMNSLKPEDTAVYYCNRVTRWTYNYWGQGTLVTVSS | high polyreactivity
QVQLVESGGGLVQAGGSLRLSCAASGIIFNTYAMGWYRQAPGKERELVAAIDSRDASTYADSVKGRFTISRDNAKNTVYVQMNSLKPEDTAVYYCNARIESYWLDFDYWGQGTQVTVSS | low polyreactivity
QVQLVESGGGLVQAGGSLRLSCAASGSIFQYYAMGWYRPAARKERELVAAISWSGGSTYYADSVKGRFTISRDNAKTTVSFLMNSLKPEDTAVYYCNARLYHLDYQGRIIRYDYWGQGTQVTESS | high polyreactivity
QVQLVESGGGLLQAGGSLRLSCAASGSTLRRYAMGWDRQAPGKERELVAAISGSGDSTYYADSVKGRFTISRDNAKNTVYLQMNSLKPEDTAVYYCNAVYAFNGYDYWGQGTQVTVSS | low polyreactivity
QVQLVESGGGLVQAGGSLRLSCAASGRIFPYNAMGWSRQAPGKERELVASITSGGGSTYYADSVKGRFTISRDNAKNTVYLQMKSLKPEDTAVYYCSTRGYAWSSDKFGYWGQGTQVTVSS | high polyreactivity
QVQLVESGGGLVQAGGSLRLSCAASGQTFGGYAMGWYRQAPGKERELVAAITKRGGNTDYADSVKGRFTISRDKAKNTVYLQMTSLKPEDTAVYYCAASRAVGFGYWGQGTQVTVSS | high polyreactivity
QVQLVESGGGLVQSGGSLRLSCAASGSIFGYYAMGWYRRAPGKERELVAAISVSGGSTYYADSVKGRFTISRDNAKNTVYLLMNSLKPEDTAVYYCNKVQGSWRVPYYYWGQGTQVTVSS | high polyreactivity
